In patent US20190364907:

B1: recombinant CMP1 LC (light chain of clostridial mosquitocidal protein 1) (protein)
chain: LQIRVFNYNDPIDGENIVELRYHNRSPVKAFQIVDGIWIIPERYNFTNDTKKVPDDRALTILEDEVFAVRENDYLTTDVNEKNSFLNNITKLFKRINSSNIGNQLLNYISTSVPYPVVSTNSIKARDYNTIKFDSIDGRRITKSANVLIYGPSMKNLLDKQTRAINGEEAKNGIGCLSDIIFSPNYLSVQTVSSSRFVEDPASSLTHELIHALHNLYGIQYPGEEKFKFGGFIDKLLGTRECIDYEEVLTYGGKDSEIIRKKIDKSLYPDDFVNKYGEMYKRIKGSNPYYPDEKKLKQSFLNRMNPFDQNGTFDTKEFKNHLMDLWFGLNESEFAKEKKILVRKHYITKQINPKYTELTNDVYTEDKGFVNGQSIDNQNFKIIDDLISKKVKL
B2: catalytically inactive CMP1 LC E209Q mutant (protein)
chain: LQIRVFNYNDPIDGENIVELRYHNRSPVKAFQIVDGIWIIPERYNFTNDTKKVPDDRALTILEDEVFAVRENDYLTTDVNEKNSFLNNITKLFKRINSSNIGNQLLNYISTSVPYPVVSTNSIKARDYNTIKFDSIDGRRITKSANVLIYGPSMKNLLDKQTRAINGEEAKNGIGCLSDIIFSPNYLSVQTVSSSRFVEDPASSLTHQLIHALHNLYGIQYPGEEKFKFGGFIDKLLGTRECIDYEEVLTYGGKDSEIIRKKIDKSLYPDDFVNKYGEMYKRIKGSNPYYPDEKKLKQSFLNRMNPFDQNGTFDTKEFKNHLMDLWFGLNESEFAKEKKILVRKHYITKQINPKYTELTNDVYTEDKGFVNGQSIDNQNFKIIDDLISKKVKL

Key:
[1] = target: An. gambiae syntaxin H252N mutant
[2] = target: An. gambiae syntaxin L271V mutant
[3] = target: An. gambiae syntaxin M257V mutant
[4] = target: An. gambiae syntaxin Q261E T262R double mutant
[5] = target: An. gambiae syntaxin T264V Q265S double mutant
[6] = target: recombinant An. gambiae syntaxin1A fragment
[7] = target: recombinant human syntaxin1A fragment, Q16623
Chain of recombinant human syntaxin1A fragment, Q16623 (Q16623 whole entry, looked up, the tested form may be a part): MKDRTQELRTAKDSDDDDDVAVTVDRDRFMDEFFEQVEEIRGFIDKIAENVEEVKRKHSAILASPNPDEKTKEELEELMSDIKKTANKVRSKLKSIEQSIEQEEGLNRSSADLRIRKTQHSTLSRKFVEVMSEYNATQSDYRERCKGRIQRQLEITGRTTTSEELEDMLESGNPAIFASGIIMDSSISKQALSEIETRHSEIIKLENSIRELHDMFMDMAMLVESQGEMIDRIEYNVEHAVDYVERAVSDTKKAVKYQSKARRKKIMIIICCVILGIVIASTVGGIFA

Protein | cleavage of syntaxin mutant (Western blot) [1] | cleavage of syntaxin mutant (Western blot) [2] | cleavage of syntaxin mutant (Western blot) [3] | cleavage of syntaxin mutant (Western blot) [4] | cleavage of syntaxin mutant (Western blot) [5] | cleavage of recombinant SNARE protein (SDS-PAGE / Western blot) [6] | cleavage of recombinant SNARE protein (SDS-PAGE / Western blot) [7]
B1 | Syntaxin mutants were cleaved with less efficiency than non-mutated syntaxin | the L271V mutant completely abolished cleavage | Syntaxin mutants were cleaved with less efficiency than non-mutated syntaxin | Syntaxin mutants were cleaved with less efficiency than non-mutated syntaxin | Syntaxin mutants were cleaved with less efficiency than non-mutated syntaxin | CMP1 LC cleaves the mosquito syntaxin resulting in a band of lower molecular weight that corresponds to cleavage of C-terminus of syntaxin | CMP1 LC was not able to cleave the recombinant human syntaxin1A
B2 |  |  |  |  |  | no cleavage was observed by the catalytically inactive CMP1 LC E209Q mutant | 
